Target: zipper-mEos3.2C (split site 164E)
Experiment: split reporter (BiFC, NanoBiT); BiFC signal of E. coli cultures read in a plate reader with 480 nm excitation at different culture durations, normalised to OD600; zippers against mutated zippers

complementation efficiency (intensity ratio of the specific BiFC signal by leucine zippers to the nonspecific signal via mutated leucine zippers): < 12
Substance: mEos3.2N-Zipper (split site 164E) (peptide)
